The data set deals with the molecule itself. Description: thioflavin T fluorescence; synthetic peptides 5-50 µM in PBS, incubated 24 h at 37 °C, then 25 µM thioflavin T; fluorescence spectra.

Consider 1 protein from paper PMC8185068, “Intracellular artificial supramolecules based on de novo designed Y15 peptides” (Nature Communications, 2021).

B1: Y15 peptide (peptide)
peptide: YEYKYEYKYEYKYEY
notes: de novo designed self-assembling peptide Y15; source: synthetic peptide (Fmoc solid-phase synthesis, RP-HPLC)
With B1, the binding result is reported as “binds”.
